# B1: Notch homolog 2 N-terminal-like protein A (Homo sapiens), Q7Z3S9 (parent)
# chain: MCVTYHNGTGYCKCPEGFLGEYCQHRDPCEKNRCQNGGTCVAQAMLGKATCRCASGFTGEDCQYSTSHPCFVSRPCLNGGTCHMLSRDTYECTCQVGFTGKECQWTDACLSHPCANGSTCTTVANQFSCKCLTGFTGQKCETDVNECDIPGHCQHGGTCLNLPGSYQCQCLQGFTGQYCDSLYVPCAPSPCVNGGTCRQTGDFTFECNCLPETVRRGTELWERDREVWNGKEHDEN
# partner: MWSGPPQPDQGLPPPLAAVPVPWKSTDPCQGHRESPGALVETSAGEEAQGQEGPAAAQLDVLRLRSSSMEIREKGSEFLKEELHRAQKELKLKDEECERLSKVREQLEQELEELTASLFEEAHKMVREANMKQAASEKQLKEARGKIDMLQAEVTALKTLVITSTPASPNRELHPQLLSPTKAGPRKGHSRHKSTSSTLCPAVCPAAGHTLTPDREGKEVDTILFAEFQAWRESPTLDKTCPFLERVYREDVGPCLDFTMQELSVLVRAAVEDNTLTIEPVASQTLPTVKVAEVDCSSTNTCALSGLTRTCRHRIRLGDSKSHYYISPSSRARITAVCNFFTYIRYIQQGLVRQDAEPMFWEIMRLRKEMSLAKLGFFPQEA
# B2: Splicing factor 45 (Homo sapiens), Q96I25 (parent)
# chain: MSLYDDLGVETSDSKTEGWSKNFKLLQSQLQVKKAALTQAKSQRTKQSTVLAPVIDLKRGGSSDDRQIVDTPPHVAAGLKDPVPSGFSAGEVLIPLADEYDPMFPNDYEKVVKRQREERQRQRELERQKEIEEREKRRKDRHEASGFARRPDPDSDEDEDYERERRKRSMGGAAIAPPTSLVEKDKELPRDFPYEEDSRPRSQSSKAAIPPPVYEEQDRPRSPTGPSNSFLANMGGTVAHKIMQKYGFREGQGLGKHEQGLSTALSVEKTSKRGGKIIVGDATEKDASKKSDSNPLTEILKCPTKVVLLRNMVGAGEVDEDLEVETKEECEKYGKVGKCVIFEIPGAPDDEAVRIFLEFERVESAIKAVVDLNGRYFGGRVVKACFYNLDKFRVLDLAEQV
# partner: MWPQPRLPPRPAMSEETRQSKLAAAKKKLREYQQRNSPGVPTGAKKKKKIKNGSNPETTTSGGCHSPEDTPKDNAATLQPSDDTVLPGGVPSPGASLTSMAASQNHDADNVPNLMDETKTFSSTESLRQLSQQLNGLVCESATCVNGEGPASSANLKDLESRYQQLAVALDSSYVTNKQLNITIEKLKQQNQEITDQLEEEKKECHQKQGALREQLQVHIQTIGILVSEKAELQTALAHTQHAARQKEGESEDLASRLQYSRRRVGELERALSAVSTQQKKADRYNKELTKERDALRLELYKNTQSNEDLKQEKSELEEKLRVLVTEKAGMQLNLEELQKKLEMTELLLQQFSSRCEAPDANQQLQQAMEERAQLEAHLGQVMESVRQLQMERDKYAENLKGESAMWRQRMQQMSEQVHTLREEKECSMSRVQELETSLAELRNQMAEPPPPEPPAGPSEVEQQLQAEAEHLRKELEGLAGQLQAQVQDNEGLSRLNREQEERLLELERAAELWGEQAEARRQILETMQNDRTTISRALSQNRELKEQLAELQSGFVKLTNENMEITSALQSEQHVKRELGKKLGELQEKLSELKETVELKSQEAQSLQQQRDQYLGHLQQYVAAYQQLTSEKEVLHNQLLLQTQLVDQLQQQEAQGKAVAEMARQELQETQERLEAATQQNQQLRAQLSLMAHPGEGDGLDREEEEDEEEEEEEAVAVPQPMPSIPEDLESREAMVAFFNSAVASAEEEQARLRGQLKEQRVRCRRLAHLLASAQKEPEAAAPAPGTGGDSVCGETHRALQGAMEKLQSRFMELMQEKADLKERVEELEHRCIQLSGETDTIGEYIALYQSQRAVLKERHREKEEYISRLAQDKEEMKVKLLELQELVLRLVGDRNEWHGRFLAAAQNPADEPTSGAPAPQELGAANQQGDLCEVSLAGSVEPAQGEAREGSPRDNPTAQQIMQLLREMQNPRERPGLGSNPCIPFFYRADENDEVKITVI
# B3: Tripartite motif-containing protein 59 (Homo sapiens), Q8IWR1 (parent)
# chain: MHNFEEELTCPICYSIFEDPRVLPCSHTFCRNCLENILQASGNFYIWRPLRIPLKCPNCRSITEIAPTGIESLPVNFALRAIIEKYQQEDHPDIVTCPEHYRQPLNVYCLLDKKLVCGHCLTIGQHHGHPIDDLQSAYLKEKDTPQKLLEQLTDTHWTDLTHLIEKLKEQKSHSEKMIQGDKEAVLQYFKELNDTLEQKKKSFLTALCDVGNLINQEYTPQIERMKEIREQQLELMALTISLQEESPLKFLEKVDDVRQHVQILKQRPLPEVQPVEIYPRVSKILKEEWSRTEIGQIKNVLIPKMKISPKRMSCSWPGKDEKEVEFLKILNIVVVTLISVILMSILFFNQHIITFLSEITLIWFSEASLSVYQSLSNSLHKVKNILCHIFYLLKEFVWKIVSH
# partner: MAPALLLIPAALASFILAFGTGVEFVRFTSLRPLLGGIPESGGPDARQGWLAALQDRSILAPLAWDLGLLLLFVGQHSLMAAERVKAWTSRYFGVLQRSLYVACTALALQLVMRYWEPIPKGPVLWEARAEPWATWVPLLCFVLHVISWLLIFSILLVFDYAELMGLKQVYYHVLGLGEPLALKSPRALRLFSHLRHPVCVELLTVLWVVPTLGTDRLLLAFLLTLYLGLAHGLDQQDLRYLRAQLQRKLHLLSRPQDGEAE
# B4: Zinc finger and BTB domain-containing protein 43 (Homo sapiens), O43298 (parent)
# chain: MEPGTNSFRVEFPDFSSTILQKLNQQRQQGQLCDVSIVVQGHIFRAHKAVLAASSPYFCDQVLLKNSRRIVLPDVMNPRVFENILLSSYTGRLVMPAPEIVSYLTAASFLQMWHVVDKCTEVLEGNPTVLCQKLNHGSDHQSPSSSSYNGLVESFELGSGGHTDFPKAQELRDGENEEESTKDELSSQLTEHEYLPSNSSTEHDRLSTEMASQDGEEGASDSAEFHYTRPMYSKPSIMAHKRWIHVKPERLEQACEGMDVHATYDEHQVTESINTVQTEHTVQPSGVEEDFHIGEKKVEAEFDEQADESNYDEQVDFYGSSMEEFSGERSDGNLIGHRQEAALAAGYSENIEMVTGIKEEASHLGFSATDKLYPCQCGKSFTHKSQRDRHMSMHLGLRPYGCGVCGKKFKMKHHLVGHMKIHTGIKPYECNICAKRFMWRDSFHRHVTSCTKSYEAAKAEQNTTEAN
# Variants of: B1
# Conditions: with RAB3IL1, Q8TBN0
row,Variant,effect of a mutation on the interaction
1,R74Q,with no effect

# Variants of: B2
# Conditions: with goga2_human GOLGA2, Q08379
row,Variant,effect of a mutation on the interaction
1,T224I,with no effect

# Variants of: B3
# Conditions: with nrm_human NRM
row,Variant,effect of a mutation on the interaction
1,R258C,with no effect

# Variants of: B4
# Conditions: with psmd3_human PSMD3, O43242
# Chain of psmd3_human PSMD3, O43242 (O43242 whole entry): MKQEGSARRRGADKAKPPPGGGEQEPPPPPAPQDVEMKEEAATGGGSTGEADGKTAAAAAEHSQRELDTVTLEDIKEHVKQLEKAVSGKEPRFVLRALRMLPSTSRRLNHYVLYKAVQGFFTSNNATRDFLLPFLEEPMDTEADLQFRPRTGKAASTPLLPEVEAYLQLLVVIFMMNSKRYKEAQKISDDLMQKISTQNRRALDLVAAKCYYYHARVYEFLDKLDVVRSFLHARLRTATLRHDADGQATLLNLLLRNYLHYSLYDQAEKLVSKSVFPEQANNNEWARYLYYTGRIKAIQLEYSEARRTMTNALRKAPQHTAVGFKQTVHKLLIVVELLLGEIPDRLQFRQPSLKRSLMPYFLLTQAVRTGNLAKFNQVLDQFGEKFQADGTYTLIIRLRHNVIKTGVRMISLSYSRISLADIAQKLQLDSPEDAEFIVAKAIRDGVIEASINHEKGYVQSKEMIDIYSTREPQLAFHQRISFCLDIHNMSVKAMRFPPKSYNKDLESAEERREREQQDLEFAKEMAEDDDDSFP
row,Variant,effect of a mutation on the interaction
1,L151V,disrupting interaction strength

# Variants of: B4
# Conditions: with traf2_human TRAF2, Q12933
# Chain of traf2_human TRAF2, Q12933 (Q12933 whole entry): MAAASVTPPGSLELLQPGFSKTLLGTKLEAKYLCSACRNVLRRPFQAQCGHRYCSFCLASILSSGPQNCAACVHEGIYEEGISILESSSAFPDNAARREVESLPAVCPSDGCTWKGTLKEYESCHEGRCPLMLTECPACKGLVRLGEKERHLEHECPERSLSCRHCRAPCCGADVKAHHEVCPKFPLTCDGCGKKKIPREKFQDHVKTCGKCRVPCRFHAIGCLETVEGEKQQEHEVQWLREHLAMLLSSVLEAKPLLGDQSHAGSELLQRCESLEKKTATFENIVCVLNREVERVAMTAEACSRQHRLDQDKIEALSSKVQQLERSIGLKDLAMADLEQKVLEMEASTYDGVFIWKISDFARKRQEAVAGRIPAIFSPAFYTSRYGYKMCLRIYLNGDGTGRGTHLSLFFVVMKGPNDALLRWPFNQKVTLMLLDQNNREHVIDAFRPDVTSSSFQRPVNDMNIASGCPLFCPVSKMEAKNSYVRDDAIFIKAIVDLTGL
row,Variant,effect of a mutation on the interaction
1,L151V,disrupting interaction strength

# Variants of: B4
# Conditions: with mo4l2_human MORF4L2, Q15014
# Chain of mo4l2_human MORF4L2, Q15014 (Q15014 whole entry): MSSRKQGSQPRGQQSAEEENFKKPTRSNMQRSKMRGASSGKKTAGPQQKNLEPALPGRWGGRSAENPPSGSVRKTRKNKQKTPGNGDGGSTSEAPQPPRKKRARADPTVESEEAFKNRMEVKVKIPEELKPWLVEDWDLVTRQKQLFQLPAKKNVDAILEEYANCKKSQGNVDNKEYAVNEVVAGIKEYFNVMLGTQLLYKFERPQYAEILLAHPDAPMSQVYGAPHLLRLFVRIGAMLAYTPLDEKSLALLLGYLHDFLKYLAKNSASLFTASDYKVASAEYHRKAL
row,Variant,effect of a mutation on the interaction
1,L151V,disrupting interaction strength

# Variants of: B4
# Conditions: with arrb1_human ARRB1, P49407
# Chain of arrb1_human ARRB1, P49407 (P49407 whole entry): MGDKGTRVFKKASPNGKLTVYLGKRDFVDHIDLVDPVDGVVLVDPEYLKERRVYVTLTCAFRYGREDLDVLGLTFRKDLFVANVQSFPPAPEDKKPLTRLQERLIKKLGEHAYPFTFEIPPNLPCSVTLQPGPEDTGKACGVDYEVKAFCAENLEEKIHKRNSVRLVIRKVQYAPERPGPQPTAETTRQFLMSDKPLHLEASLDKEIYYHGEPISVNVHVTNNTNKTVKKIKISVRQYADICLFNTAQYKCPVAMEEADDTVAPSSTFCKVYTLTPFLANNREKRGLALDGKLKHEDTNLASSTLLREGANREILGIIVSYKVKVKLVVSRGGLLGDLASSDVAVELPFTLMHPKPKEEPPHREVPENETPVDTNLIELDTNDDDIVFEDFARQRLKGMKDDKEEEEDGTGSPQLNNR
row,Variant,effect of a mutation on the interaction
1,L151V,disrupting interaction strength

# Source: IntAct's records for PubMed 31515488
